Experimental data as given in publication PMC3821859, “Role of the Acidic Tail of High Mobility Group Protein B1 (HMGB1) in Protein Stability and DNA Bending”.

Columns and labels:
HMGB1 = HMGB1 (Homo sapiens, UniProt P09429 1-215); assay: fluorescence anisotropy; 50 nM DNA; sigmoidal dose-response fit; 10 mM Tris-HCl pH 7.5, 50 mM NaCl, 0.5 mM DTT, 0.1 mM EDTA, 5% glycerol; 25 °C (anisotropy); conditions: protein: recombinant; tags: N-terminal 6xHis with TEV site, not removed; label: 5'-6-FAM on complementary strand; blunt
Chain of HMGB1 (P09429 whole entry): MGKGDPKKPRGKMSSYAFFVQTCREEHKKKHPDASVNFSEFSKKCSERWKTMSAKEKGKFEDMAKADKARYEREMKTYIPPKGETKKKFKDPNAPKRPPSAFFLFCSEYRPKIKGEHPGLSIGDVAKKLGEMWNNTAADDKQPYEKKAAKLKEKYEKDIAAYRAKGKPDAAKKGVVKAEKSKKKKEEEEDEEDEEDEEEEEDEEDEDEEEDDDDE

HMGB1ΔC = HMGB1ΔC (Homo sapiens, UniProt P09429 1-185, del186-215); assay: as above; conditions: protein: recombinant; tags: N-terminal 6xHis with TEV site, not removed; label: 5'-6-FAM on complementary strand; blunt
Chain of HMGB1ΔC (P09429 1-185, stated change not applied): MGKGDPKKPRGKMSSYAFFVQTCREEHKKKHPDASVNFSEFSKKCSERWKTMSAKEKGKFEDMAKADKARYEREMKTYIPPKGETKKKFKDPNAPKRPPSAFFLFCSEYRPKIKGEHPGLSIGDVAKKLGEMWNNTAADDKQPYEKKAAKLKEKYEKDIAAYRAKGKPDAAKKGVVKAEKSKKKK

B1: 20-bp dsDNA, 6-FAM (dsDNA)
DNA 1: TACTGTATGAGCATACAGTA
DNA 2: TACTGTATGCTCATACAGTA
In the case of B1, the Kd (HMGB1) is reported as 88 ± 5 nM and the Kd (HMGB1ΔC) is reported as 72 ± 4 nM.
